T1: MukBtriple (MukB3X) (Escherichia coli, UniProt P22523 1-1486, D697K;D745K;E753K)
T1 sequence: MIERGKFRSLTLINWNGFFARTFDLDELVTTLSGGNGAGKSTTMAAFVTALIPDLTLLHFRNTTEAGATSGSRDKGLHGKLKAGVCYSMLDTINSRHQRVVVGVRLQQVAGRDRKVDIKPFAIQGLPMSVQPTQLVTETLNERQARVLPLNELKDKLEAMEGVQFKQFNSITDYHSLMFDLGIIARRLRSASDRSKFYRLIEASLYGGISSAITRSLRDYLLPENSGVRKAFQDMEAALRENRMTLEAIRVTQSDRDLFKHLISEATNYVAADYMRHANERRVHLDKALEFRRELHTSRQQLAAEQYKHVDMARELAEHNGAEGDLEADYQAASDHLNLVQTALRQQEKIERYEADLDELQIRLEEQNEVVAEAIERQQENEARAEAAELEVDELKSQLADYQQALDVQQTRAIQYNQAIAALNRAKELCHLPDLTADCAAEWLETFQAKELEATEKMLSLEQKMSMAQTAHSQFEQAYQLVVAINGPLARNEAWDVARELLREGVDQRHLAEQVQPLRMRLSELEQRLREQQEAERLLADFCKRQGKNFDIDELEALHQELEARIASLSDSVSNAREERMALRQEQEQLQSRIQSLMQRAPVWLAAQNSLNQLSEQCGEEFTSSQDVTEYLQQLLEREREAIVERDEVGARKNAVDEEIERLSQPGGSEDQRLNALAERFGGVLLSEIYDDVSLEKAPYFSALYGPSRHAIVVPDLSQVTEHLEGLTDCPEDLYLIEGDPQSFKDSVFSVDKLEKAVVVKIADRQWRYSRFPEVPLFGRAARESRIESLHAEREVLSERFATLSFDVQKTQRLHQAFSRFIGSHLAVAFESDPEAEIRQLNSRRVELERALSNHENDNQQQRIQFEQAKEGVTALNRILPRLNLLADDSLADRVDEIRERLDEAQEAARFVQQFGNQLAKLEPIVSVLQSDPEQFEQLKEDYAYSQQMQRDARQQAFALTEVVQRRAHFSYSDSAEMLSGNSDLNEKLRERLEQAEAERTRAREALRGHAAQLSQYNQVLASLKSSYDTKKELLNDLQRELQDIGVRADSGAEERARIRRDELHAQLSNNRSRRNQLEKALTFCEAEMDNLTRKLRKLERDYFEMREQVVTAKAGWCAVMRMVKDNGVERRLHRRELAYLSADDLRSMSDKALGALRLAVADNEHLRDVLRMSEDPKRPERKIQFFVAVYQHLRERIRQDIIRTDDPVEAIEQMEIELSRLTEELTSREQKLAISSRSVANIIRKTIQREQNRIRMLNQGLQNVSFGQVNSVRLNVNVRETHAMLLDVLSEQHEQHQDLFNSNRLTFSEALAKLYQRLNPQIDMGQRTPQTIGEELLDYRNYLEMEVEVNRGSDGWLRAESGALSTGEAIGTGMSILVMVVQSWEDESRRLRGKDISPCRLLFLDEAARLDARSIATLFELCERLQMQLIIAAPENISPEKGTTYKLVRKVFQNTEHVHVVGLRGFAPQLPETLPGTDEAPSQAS

T2: MukB (Escherichia coli, UniProt P22523 1-1486)
T2 sequence: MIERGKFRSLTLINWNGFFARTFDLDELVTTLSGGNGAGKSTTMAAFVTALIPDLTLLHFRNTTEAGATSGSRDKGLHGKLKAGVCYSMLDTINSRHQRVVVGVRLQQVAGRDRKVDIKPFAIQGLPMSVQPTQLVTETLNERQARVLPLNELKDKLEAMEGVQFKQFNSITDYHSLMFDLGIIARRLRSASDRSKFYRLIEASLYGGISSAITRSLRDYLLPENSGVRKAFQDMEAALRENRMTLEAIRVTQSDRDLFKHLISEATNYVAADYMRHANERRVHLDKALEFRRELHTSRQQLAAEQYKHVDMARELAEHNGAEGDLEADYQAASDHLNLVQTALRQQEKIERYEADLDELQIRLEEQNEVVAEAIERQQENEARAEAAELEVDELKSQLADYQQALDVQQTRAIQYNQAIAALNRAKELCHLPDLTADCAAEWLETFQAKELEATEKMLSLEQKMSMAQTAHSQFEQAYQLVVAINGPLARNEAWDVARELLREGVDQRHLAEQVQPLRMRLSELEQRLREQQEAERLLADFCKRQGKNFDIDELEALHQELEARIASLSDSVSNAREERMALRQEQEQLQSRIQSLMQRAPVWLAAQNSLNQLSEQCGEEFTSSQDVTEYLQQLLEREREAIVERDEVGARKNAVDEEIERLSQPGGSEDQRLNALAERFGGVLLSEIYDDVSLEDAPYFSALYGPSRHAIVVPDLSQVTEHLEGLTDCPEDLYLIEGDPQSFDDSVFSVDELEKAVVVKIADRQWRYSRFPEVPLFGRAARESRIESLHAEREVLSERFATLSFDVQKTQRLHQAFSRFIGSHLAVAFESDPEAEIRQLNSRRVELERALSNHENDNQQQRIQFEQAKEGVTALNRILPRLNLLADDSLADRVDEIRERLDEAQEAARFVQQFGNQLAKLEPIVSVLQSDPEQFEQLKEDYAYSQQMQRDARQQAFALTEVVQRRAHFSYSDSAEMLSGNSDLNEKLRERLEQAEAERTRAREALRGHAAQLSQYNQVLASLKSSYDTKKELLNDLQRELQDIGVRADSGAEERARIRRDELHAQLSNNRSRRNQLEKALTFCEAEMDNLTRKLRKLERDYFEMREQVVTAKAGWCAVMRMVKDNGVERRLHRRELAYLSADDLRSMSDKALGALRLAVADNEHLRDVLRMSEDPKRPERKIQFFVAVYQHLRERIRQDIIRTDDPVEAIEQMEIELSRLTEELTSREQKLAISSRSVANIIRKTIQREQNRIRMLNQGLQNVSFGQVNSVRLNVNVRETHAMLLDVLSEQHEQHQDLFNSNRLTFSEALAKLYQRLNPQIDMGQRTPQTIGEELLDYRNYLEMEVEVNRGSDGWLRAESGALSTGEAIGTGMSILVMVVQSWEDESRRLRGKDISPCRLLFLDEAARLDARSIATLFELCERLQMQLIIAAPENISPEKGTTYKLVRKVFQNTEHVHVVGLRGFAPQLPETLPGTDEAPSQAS

T3: MukB (E. coli, UniProt P22523 1-1486)
T3 construct: MukB, SMC-like condensin of Escherichia coli; also called condensin MukB; wild-type MukB
T3 sequence (looked up): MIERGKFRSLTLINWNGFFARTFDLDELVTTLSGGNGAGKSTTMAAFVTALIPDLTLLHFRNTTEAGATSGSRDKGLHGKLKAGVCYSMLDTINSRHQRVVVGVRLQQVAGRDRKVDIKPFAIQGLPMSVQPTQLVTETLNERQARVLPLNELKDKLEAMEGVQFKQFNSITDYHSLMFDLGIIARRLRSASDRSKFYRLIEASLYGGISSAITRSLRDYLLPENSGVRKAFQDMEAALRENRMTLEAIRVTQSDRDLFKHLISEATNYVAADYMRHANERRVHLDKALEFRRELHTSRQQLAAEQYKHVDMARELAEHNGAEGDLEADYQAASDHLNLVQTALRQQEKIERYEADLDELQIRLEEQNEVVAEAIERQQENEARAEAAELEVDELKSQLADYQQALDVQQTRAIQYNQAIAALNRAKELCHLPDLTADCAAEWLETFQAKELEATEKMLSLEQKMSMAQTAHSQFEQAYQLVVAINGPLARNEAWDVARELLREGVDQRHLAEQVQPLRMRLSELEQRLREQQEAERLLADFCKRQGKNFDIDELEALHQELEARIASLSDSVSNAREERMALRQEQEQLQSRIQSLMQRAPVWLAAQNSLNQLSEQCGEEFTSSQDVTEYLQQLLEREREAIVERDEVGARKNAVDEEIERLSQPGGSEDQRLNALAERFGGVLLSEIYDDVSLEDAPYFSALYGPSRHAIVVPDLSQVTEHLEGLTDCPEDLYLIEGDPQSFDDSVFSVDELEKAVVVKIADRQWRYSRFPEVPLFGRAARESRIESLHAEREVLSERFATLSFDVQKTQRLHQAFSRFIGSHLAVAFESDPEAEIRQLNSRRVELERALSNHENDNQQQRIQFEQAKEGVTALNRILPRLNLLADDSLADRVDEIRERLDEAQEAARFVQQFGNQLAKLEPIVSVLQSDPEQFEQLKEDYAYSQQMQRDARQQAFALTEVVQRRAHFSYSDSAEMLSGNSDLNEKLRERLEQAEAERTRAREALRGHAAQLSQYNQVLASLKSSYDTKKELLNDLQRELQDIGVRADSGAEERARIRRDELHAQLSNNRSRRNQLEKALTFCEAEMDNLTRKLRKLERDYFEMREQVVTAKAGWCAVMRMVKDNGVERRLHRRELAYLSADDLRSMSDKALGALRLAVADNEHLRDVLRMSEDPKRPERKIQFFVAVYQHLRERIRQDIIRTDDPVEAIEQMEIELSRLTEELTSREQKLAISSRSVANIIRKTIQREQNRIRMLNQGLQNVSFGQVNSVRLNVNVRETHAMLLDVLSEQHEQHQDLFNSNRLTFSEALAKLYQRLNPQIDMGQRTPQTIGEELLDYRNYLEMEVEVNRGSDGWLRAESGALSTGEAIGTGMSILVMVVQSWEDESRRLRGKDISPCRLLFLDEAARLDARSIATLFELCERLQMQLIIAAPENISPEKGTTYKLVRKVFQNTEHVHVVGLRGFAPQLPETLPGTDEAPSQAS


Assays:
MukBtriple (MukB3X) = target: T1, MukBtriple (MukB3X); assay: DNA binding assay (method not stated in material); 0.5 mM Mg(OAc)2; apparent Kd; 50 mer binding: 50 mM HEPES-KOH pH 7.5, 10 mM DTT, 20 mM KCl, 0.5 mM Mg(OAc)2, 5 nM DNA; pull-down: same buffer plus 7.5% glycerol, 0.05% NP-40, loading at room temperature, assay at 37 C; settings: protein: recombinant; chain copies: 2; label: 5'-32P; blunt
MukB [1] = target: T2, MukB; assay: as above; settings: protein: recombinant; chain copies: 2; label: 5'-32P; blunt
MukB [2] = target: T3, MukB; assay: pull-down; MukB (125 nM) held on Dynabeads Protein A through affinity-purified MukB polyclonal antibodies; varying ParC; 50 mM HEPES-KOH pH 7.5, 50 mM KCl, 0.5 mM Mg(OAc)2, 7.5% glycerol, 0.05% IGEPAL, 15 min at 37°C; bound protein read from SDS-PAGE bands; fit to the Hill equation; KD dimer to dimer; settings: both partners purified

| Kd (MukB [2]) [nM] | Binder | Kd (MukBtriple (MukB3X)) [nM] | Kd (MukB [1]) [nM] |
| --- | --- | --- | --- |
|  | 50mer duplex DNA (dsDNA) DNA 1: ATCTCGGGCTATTCTTTTGATTTATAAGGGATTTTGCCGATTTCGGAACC DNA 2: GGTTCCGAAATCGGCAAAATCCCTTATAAATCAAAAGAATAGCCCGAGAT | 30 | 120 |
| 115 | ParC subunit of topoisomerase IV (natural protein, E. coli, UniProt P0AFI2 1-752, looked up, ParC, breakage and reunion subunit of topoisomerase IV of Escherichia coli; also called wild-type ParC; Cwt) MSDMAERLALHEFTENAYLNYSMYVIMDRALPFIGDGLKPVQRRIVYAMSELGLNASAKFKKSARTVGDVLGKYHPHGDSACYEAMVLMAQPFSYRYPLVDGQGNWGAPDDPKSFAAMRYTESRLSKYSELLLSELGQGTADWVPNFDGTLQEPKMLPARLPNILLNGTTGIAVGMATDIPPHNLREVAQAAIALIDQPKTTLDQLLDIVQGPDYPTEAEIITSRAEIRKIYENGRGSVRMRAVWKKEDGAVVISALPHQVSGARVLEQIAAQMRNKKLPMVDDLRDESDHENPTRLVIVPRSNRVDMDQVMNHLFATTDLEKSYRINLNMIGLDGRPAVKNLLEILSEWLVFRRDTVRRRLNYRLEKVLKRLHILEGLLVAFLNIDEVIEIIRNEDEPKPALMSRFGLTETQAEAILELKLRHLAKLEEMKIRGEQSELEKERDQLQGILASERKMNNLLKKELQADAQAYGDDRRSPLQEREEAKAMSEHDMLPSEPVTIVLSQMGWVRSAKGHDIDAPGLNYKAGDSFKAAVKGKSNQPVVFVDSTGRSYAIDPITLPSARGQGEPLTGKLTLPPGATVDHMLMESDDQKLLMASDAGYGFVCTFNDLVARNRAGKALITLPENAHVMPPVVIEDASDMLLAITQAGRMLMFPVSDLPQLSKGKGNKIINIPSAEAARGEDGLAQLYVLPPQSTLTIHVGKRKIKLRPEELQKVTGERGRRGTLMRGLQRIDRVEIDSPRRASSGDSEE |  |  |
